Patent US6596504B2, “Treatment of prophylaxis of diseases caused by pilus-forming bacteria” (Washington University, priority 1993, dated 2003)

Legend:
PapD [1] = molecular target: T1, PapD (Escherichia coli, UniProt P15319); experiment: In vitro complex formation of PapD with MBP/G fusion proteins on silver stained IEF gel; assay type: binding, E. coli
T1 construct: (A) NAME/KEY: mat_; made in house; Lindberg et al. 1989
T1 sequence (P15319 22-239): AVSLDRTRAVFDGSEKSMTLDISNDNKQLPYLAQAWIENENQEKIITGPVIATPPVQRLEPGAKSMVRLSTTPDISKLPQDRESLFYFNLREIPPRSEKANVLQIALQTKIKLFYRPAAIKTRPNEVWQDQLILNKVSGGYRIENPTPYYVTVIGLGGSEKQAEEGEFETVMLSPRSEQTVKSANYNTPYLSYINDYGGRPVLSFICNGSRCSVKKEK
Method: (A) PapD was incubated with 1 μg of amylose affinity purified MBP (lane), MBP-G1′-19′ (lane 2), MBP-G1′-81′ (lane 3), or MBP-G1′-140′ (lane 4) and complex formation was evaluated on the silver stained IEF gel. Positions of MBP/G fusions, PapD and the PapD-MBP-G1′-140′ complex are indicated.
The interaction between PapD and MBP/G fusion in vitro was assayed by incubating purified PapD (1 μg) and amylose bead affinity purified MBP/G fusion protein (1 μg) in 4 μl PBS for 30 minutes and then applied to IEF (pI 3-9), followed by silver staining. Another in vitro assay that is more quantitative is the ELISA described below.

HB101/pFJ3 [2] = experiment: Hemagglutination titer on co-expression of MBP/G fusions with the pap operon; assay type: cell-based, E. coli
Method: HB101/pFJ3 harbouring various MBP/G fusion plasmids was passaged on Trypticase Soy Agar (TSA, Becton Dickinson, Cockeysville, Md., USA) three times to induce P-pili expression. At the last passage, the expression of MBP/G fusions was induced on TSA containing 100 μM IPTG. The cells from different strains were then collected and the HA titers were determined as described (Jacob-Dubuisson et al., 1993b).
PapD is essential for P-pilus assembly (Hultgren et al., 1991). […] The ability of the MBP/G fusions to block pilus formation by inhibiting chaperone-subunit complex formation when co-expressed in trans with the pap operon was tested. Plasmids pMAL-p4, pMAL/G1′-19′, pMAL/G1′-81′ and pMAL/G1′-140′ were transformed into the strain HB101/pFJ3 which contains the pap operon under the control of its own promoter in the vector pACYC184 (Jacob-Dubuisson et al. 1993b). Each MBP/G fusion protein was localized in the periplasm as determined by SDS-PAGE and western blotting with anti-MBP antisera (data not shown). Hemagglutination (HA) assays were performed on the cells co-expressing the pap operon with either MBP (pMAL-p4) or with each of the MBP/G fusions. Co-expression of the MBP/G1′-140′ fusions with the pap operon decreased the HA titer 30 fold compared to the MBP control (see table 3).

PapD [3] = molecular target: T1, PapD; experiment: PapD-MBP/G interactions in vivo: co-elution of PapD on amylose affinity chromatography; assay type: binding, E. coli
Method: Strains carrying MBP or MBP/G fusion gene plasmids were induced in LB broth culture with 1 mM isopropylthiogalactoside (IPTG). Periplasmic extracts were prepared as described (Slonim et al., 1992). One tenth volume of 10×phosphate-buffered saline (PBS, 120 mM NaCl, 2.7 mM KCl, 10 mM Na2HPO4 and 2 mM KH2PO4, pH 7.4) was added to the periplasmic extract. Amylose resin was then added to the periplasmic extracts at a 1:5 ratio. The mixture was rocked at 4° C. overnight and the beads were subsequently washed 5 times with PBS. MBP or MBP/G fusion proteins were eluted with 20 mM maltose in PBS by rocking at 4° C. for an hour. Protein concentrations were determined using the Bio-Rad DC protein assay kit (Bio-Rad Laboratories, Hercules, Calif., USA). The full length fusion protein concentration was further quantitated by the Coomassie stained SDS-PAGE gel with known concentrations of bovine albumin (BSA) as the standards followed by densitometry scanning. […]
The ability of PapD to bind to the MBP/G fusions was investigated using amylose affinity chromatography (Kellermann and Ferenci, 1982). […] Periplasmic extracts from each strain containing the MBP/G proteins and PapD were subjected to amylose affinity chromatography and the eluates analyzed by SDS-PAGE (FIG. 21A) and by western blotting with anti-PapD antisera (FIG. 21B). […]

PapD [4] = molecular target: T1, PapD; experiment: ELISA: PapD binding to immobilized MBP/G fusion proteins; parameters: species or system E. coli; settings: 50 pmol PapD
Method: (B) Amylose affinity purified NBP/G fusion proteins were coated to wells of microtiter plates. The concentration of the MBP/G proteins in the wells is indicated. Binding of 50 pmol/[…] of PapD to the immobilized proteins was determined by ELISA using anti-PapD antiserum.
Stock solutions of MBP/G fusion proteins in PBS were diluted to 40 pmol/50 μl with PBS. The solutions of the 40 pmol/50 μl MBP/G fusion proteins were serially diluted in PBS and 50 μl of each solution were used to coat the wells of a 96-well Nunc Immunoplate (Inter Med, DK-4000 Roskilde, Denmark) overnight at 4° C. The wells were then washed with PBS and blocked with 200 μl of […] in PBS for 2 hours at 25° C. The plates were washed vigorously three times with PBS and incubated with 50 μl of PapD diluted at 50 pmol PapD in 50 μl 3% BSA-PBS for 45 minutes at 25° C. After three washings with PBS, the wells were incubated with a 1:500 dilution of rabbit anti-PapD antiserum in 3% BSA-PBS for 45 minutes at 25° C. After three washings with PBS, the wells were incubated with a 1:1000 dilution of goat antiserum to rabbit IgG coupled to alkaline phosphatase in 3% BSA-PBS for 45 minutes at 25° C. […] The reaction was incubated for 1 hour in the dark at 25° C. and the absorbance at 405 nm was read.

HB101/pFJ3 [5] = experiment: Pili preparation and quantitation on co-expression of MBP/G fusions; assay type: cell-based, E. coli
Method: The cells obtained from TSA plates were collected. Pili were prepared from the same amounts of cells using the procedure described previously (Jacob-Dubuisson, et al., 1993b). These pili preparations were boiled in Lammeli sample buffer with 4 M urea, then analyzed on Coomassie blue stained SDS polyacrylamide gels. The relative amount of piliation was quantified by densitometric scanning of the PapA bands.

PapD [6] = molecular target: T1, PapD; experiment: ELISA: PapD binding to immobilized second site peptides of PapG; parameters: species or system E. coli; settings: peptide coated on wells, 200 pmol PapD
Method: Four synthetic peptides overlapping the PapG region from residue 156′ to 120′ (indicated in FIG. 20) were coated to wells of microtiter plates. The concentration of each peptide in the wells is indicated. Binding of 200 pmol/[…] of PapD to the immobilized peptide was determined by ELISA using anti-PapD antiserum.
For assaying the second site peptides, all the peptides were dissolved in dimethyl sulfoxide (DMSO, Sigma, St. Louis, Mo., USA) to a final concentration 2 mM. The stock solutions were diluted to a proper concentration in PBS and coated overnight on microtiter wells at 4° C. All the peptide solutions were adjusted to the same DMSO concentration. The subsequent steps followed the procedure described above.

PapD [7] = molecular target: T1, PapD; experiment: PapD complex formation with PapG truncates (acidic native gel, western blotting); assay type: binding, E. coli; settings: co-expressed in KS474
Method: Periplasm containing PapD and PapG, PapG2 or PapG3 (lane 2, 3 and 4 respectively) were subjected to Gal α(1-4) Gal chromatography and eth eluates were analyzed on acidic native gel electrophoresis following western blotting using anti-PapD (A) and anti-PapG (B) antisera. Purified PapD-PapG complex was loaded-in lane 1.
PapD and the PapG-truncates were co-expressed in KS474, the truncates were induced at OD600 0.6 with 0.5 mM IPTG and PapD under the control of the arabinose promoter was induced with 0.2% arabinose. After one hour induction, periplasmic extracts were prepared and rocked with Gal α(1-4) Gal beads overnight at 4° C. and eluted with 15 μg/ml Gal α(1-4) Gal-TMSET solution as described previously (Hultgren et al., 1989; Kuehn et al., 1991). The eluates were analyzed by acidic native gel eletrophoresis (Striker et al., 1994) followed by western blotting using anti-PapD and anti-PapG antiserum.

Molecule: MBP/G1′-19′: fusion of maltose binding protein and COOH-terminal residues 1′-19′ of PapG
- complex formation with PapD in vitro (PapD [1]): no complexes
- effect on hemagglutination (HB101/pFJ3 [2]; co-expression in strains producing P pili): only weak effects on the HA titer
- HA titer (HB101/pFJ3 [2]; highest dilution of cell suspension yielding detectable HA, co-expression with pap operon): 64
- interaction of PapD with MBP/G protein in vivo (co-elution) (PapD [3]; co-expressed, SDS-PAGE and western blot of eluates): only weakly
- stable complexes with PapD in the eluates (PapD [3]; silver stained IEF gel): not possible to detect stable complexes
- PapD binding to immobilized fusion protein (PapD [4]): weakly
- reduction of the amount of pili compared to MBP alone (HB101/pFJ3 [5]; co-expression with pap operon): about 50%
- Pilation percentage (HB101/pFJ3 [5]; densitometry of PapA bands, control HB101/pFJ3/pMAL-p4 = 100%): 50%
- inhibition of pilus assembly (HB101/pFJ3 [5]; expression in cells producing P pili): weak inhibitors

Molecule: G125′-140′: peptide of C-terminal amino acid residues 125′ to 140′ of PapG, SEQ ID NO: 20 (DQIKQLPATNTLMLSF)
- binding to PapD in ELISA (PapD [6]): bound to PapD

B1: full-length PapG: P pilus tip adhesin PapG (protein)
chain: GWHNVMFYAFNDYLTTNAGNVKVIDQPQLYIPWNTGSATATYYSCSGPEFASGVYFQEYLAWMVVPKHVYTNEGFNIFLDVQSKYGWSMENENDKDFYFFVNGYEWDTWTNNGARICFYPGNMKQLNNKFNDLVFRVLLPVDLPKGHYNFPVRYIRGIQHHYYDLWQDHYKMPYDQIKQLPATNTLMLSFDNVGGCQPSTQVLNIDHGSIVIDRANGNIASQTLSIYCDVPVSVKISLLRNTPPIYNNNKFSVGLGNGWDSIISLDGVEQSEEILRWYTAGSKTVKIESRLYGEEGKRKPGELSGSMTMVLSFP
- complex formation with PapD (PapD [7]): formed a complex
